Among the data in publication PMC11109196 (2024) are koff and Kd values, retold here.

Common to all, as to test: BLI
Assay [1] has as its target T1, gp120 Czm (clade C, 96ZM652) (HIV-1 isolate 96ZM652).
For assay [2], the target named is T2, gp120 A2 (clade A, 92UG037.8) (HIV-1 isolate 92UG037.8).
The target of assay [3] is Bal gp120 (HIV-1 isolate Bal).
For assay [4], the target named is gp120 AE (clade E, 93TH976.17) (HIV-1 isolate 93TH976.17).
For assay [5], the target named is gp120 B (clade B, 92US715.6) (HIV-1 isolate 92US715.6).
Assay [6] addresses T1, gp120 Czm (clade C, 96ZM652). This is another data set of the same source.
For assay [7], the target named is T2, gp120 A2 (clade A, 92UG037.8). The source holds these as a separate data set.
The target in assay [8] is Bal gp120 (HIV-1 isolate Bal). The source holds these as a separate data set.

B1: HmAb64 (antibody, V domains shown)
VH: QVQLVQSGAEVKKPGASVKVSCKASGYTFTSYDITWVRQAPGQGLEWMGWISAYNGDTNYAQRLQGRVTMTTDTSTSTAYMELRSLRSDDTAVYYCARAKHTVLVTAMRWFDPWGQGTLVTVSS
VL: DIQMTQSPSSLSASVGDRVTITCRASQSISNYLNWYQQKPGKAPKLLISATSSLQSGVPSRFSGSGSGTDFTLTISSLQPDDFATYYCQQSYSTPWTFGQGTKLEIK
Take B1: the koff in assay [1] came to 0.000454 s⁻¹; in assay [2] it was 0.000641 s⁻¹; in assay [3], 0.000459 s⁻¹; in assay [4], 0.000423 s⁻¹; in assay [5], 0.000684 s⁻¹. Also, the Kd in assay [4] came out at 20 nM; in assay [5], 22.9 nM; in assay [6] it was 22.5 nM; in assay [7], 39.4 nM; in assay [8], 16 nM.
